Experimental data published in US20130058902A1, “DENDRITIC CELL SUBSETS FOR GENERATING INDUCED TOLEROGENIC DENDRITIC CELLS AND RELATED COMPOSITIONS AND METHODS” (Selecta Biosciences, Inc., priority 2011, published 2013).

Test system: DCs in the spleen
Experiment: Expansion of spleen DCs in donor mice inoculated with FLT-3 ligand expressing melanoma cells
Format: in vivo, C57BL/6 mice
Settings: spleen of syngeneic donor mice inoculated 10 days earlier with FLT-3 ligand expressing melanoma cells
Source text: For each treatment day syngeneic donor mice were inoculated 10 days earlier with Fms-like tyrosine kinase 3 (FLT-3) ligand expressing melanoma cells s.s. (performed on days−10, 4, 18 in donor C57BL/6 age-matched mice). Flt3 ligand is a growth factor for DCs and allows for greater total number of DCs to be present in the spleen. This increased the number of DCs more than 10-fold and allowed for more cells to be available for in vitro treatment and in vivo administration.

B1: Flt3 ligand: growth factor for DCs, delivered by FLT-3 ligand expressing melanoma cells inoculated into donor mice (protein, UniProt P49772 27-232, looked up)
Fms-related tyrosine kinase 3 …: GTPDCYFSHSPISSNFKVKFRELTDHLLKDYPVTVAVNLQDEKHCKALWSLFLAQRWIEQLKTVAGSKMQTLLEDVNTEIHFVTSCTFQPLPECLRFVQTNISHLLKDTCTQLLALKPCIGKACQNFSRCLEVQCQPDSSTLLPPRSPIALEATELPEPRPRQLLLLLLLLLPLTLVLLAAAWGLRWQRARRRGELHPGVPLPSHP
increase of the number of DCs: more than 10 fold
